Patent US20110318339A1 (FABRUS, published 2011)

Tests used:
[1] = molecular target: T1, recombinant human DLL4 (Cat# 1506-D4/CF, R&D Systems) (human, UniProt Q9NR61 27-529); test: ELISA, DLL4 coated, Fab 25 nM
T1 construct: Bought protein; also called hDLL4; rHuman DLL4
Description: (§1) The plate was blocked by adding 1% BSA in Tris-buffered Saline Tween (TBST) and incubating for 1 hour at room temperature followed by washing 2 times with 150 μl TBST. A Fab antibody was serially diluted in 1% BSA in PBS. A 50 μl aliquot of each serial dilution was added, in triplicate, to each well and the plate was incubated for 1 hour at room temperature followed by washing 2 times with TBST. 50 μl of either goat anti-human kappa HRP conjugated secondary antibody (Cat # A7164-1 mL, Sigma-Aldrich) or goat anti-human lambda HRP conjugated secondary antibody (Cat # L1645-1 ml, Sigma-Aldrich), diluted 1:1000 in 1% BSA in PBS, was added to each well and the plate was incubated for 30 minutes at room temperature followed by washing 3 times with 200 μl TBST. Finally, 50 μl TMB one-component reagent (Cat # TMBW-1000-01, BioFax) was added and allowed to develop for 2 minutes at room temperature. The reaction was immediately halted by the addition of 50 μl 0.5M H₂SO₄ and the absorbance at 450 nm was measured using an ELISA plate reader.

[2] = molecular target: T1, recombinant human DLL4 (Cat# …); test: ELISA, DLL4 coated, Fab 50 nM
Description: (§2) In this example, an ELISA binding assay was used to assess the dose-dependent binding of Fab antibodies to recombinant human DLL4 and recombinant mouse DLL4.
as §1

[3] = molecular target: T1, recombinant human DLL4 (Cat# …); test: ELISA, DLL4 coated, Fab 100 nM
Description: as §2, §1

[4] = molecular target: T1, recombinant human DLL4 (Cat# …); test: ELISA, DLL4 coated, Fab 12.5 nM
Description: as §2, §1

Row | ELISA absorbance at 450 nm [1] | ELISA absorbance at 450 nm [2] | ELISA absorbance at 450 nm [3] | ELISA absorbance at 450 nm [4] | Binder
1 | 0.56 A450 | 0.72 A450 | 0.9 A450 | 0.41 A450 | Fab VH5-51_IGHD5-18*01>3_IGHJ4*01 G100K/G104T G24T/S28R/G35V & V3-4_IGLJ1*01 V91L/S96P S52Y (Fab, V domains shown, Fab made in E. coli: VH on CH1 with His6 and Flag tags (Plasmid A), VL on lambda CL (Plasmid E); also called H: KT TRV & L: LP S52Y) VH: EVQLVQSGAEVKKPGESLKISCKTSGYRFTSYWIVWVRQMPGKGLEWMGIIYPGDSDTRYSPSFQGQVTISADKSISTAYLQWSSLKASDTAMYYCARRKYSYTYDYFDYWGQGTLVTVSS VL: QTVVTQEPSFSVSPGGTVTLTCGLSSGSVSTSYYPSWYQQTPGQAPRTLIYYTNTRSSGVPDRFSGSILGNKAALTITGAQADDESDYYCLLYMGPGISYVFGTGTKVTVL
2 | 0.59 A450 | 0.79 A450 | 1 A450 | 0.43 A450 | Fab VH5-51_IGHD5-18*01>3_IGHJ4*01 G100K/G104T G24T/S28R/G35V & V3-4_IGLJ1*01 V91L/S96P S52P (Fab, V domains shown, Fab made in E. coli: VH on CH1 with His6 and Flag tags (Plasmid A), VL on lambda CL (Plasmid E); also called H: KT TRV & L: LP S52P) VH: EVQLVQSGAEVKKPGESLKISCKTSGYRFTSYWIVWVRQMPGKGLEWMGIIYPGDSDTRYSPSFQGQVTISADKSISTAYLQWSSLKASDTAMYYCARRKYSYTYDYFDYWGQGTLVTVSS VL: QTVVTQEPSFSVSPGGTVTLTCGLSSGSVSTSYYPSWYQQTPGQAPRTLIYPTNTRSSGVPDRFSGSILGNKAALTITGAQADDESDYYCLLYMGPGISYVFGTGTKVTVL
3 | 0.6 A450 | 0.82 A450 | 1.04 A450 | 0.4 A450 | Fab VH5-51_IGHD5-18*01>3_IGHJ4*01 G100K/G104T G24T/S28R/G35V & V3-4_IGLJ1*01 V91L/S96P S52I (Fab, V domains shown, Fab made in E. coli: VH on CH1 with His6 and Flag tags (Plasmid A), VL on lambda CL (Plasmid E); also called H: KT TRV & L: LP S52I) VH: EVQLVQSGAEVKKPGESLKISCKTSGYRFTSYWIVWVRQMPGKGLEWMGIIYPGDSDTRYSPSFQGQVTISADKSISTAYLQWSSLKASDTAMYYCARRKYSYTYDYFDYWGQGTLVTVSS VL: QTVVTQEPSFSVSPGGTVTLTCGLSSGSVSTSYYPSWYQQTPGQAPRTLIYITNTRSSGVPDRFSGSILGNKAALTITGAQADDESDYYCLLYMGPGISYVFGTGTKVTVL

Continued, binder first:

Row | Binder | ELISA absorbance at 450 nm [1] | ELISA absorbance at 450 nm [2] | ELISA absorbance at 450 nm [3] | ELISA absorbance at 450 nm [4]
4 | Fab VH5-51_IGHD5-18*01>3_IGHJ4*01 & V3-4_IGLJ1*01 (Fab, V domains shown, Fab made in E. coli: VH on CH1 with His6 and Flag tags (Plasmid A), VL on lambda CL (Plasmid E); also called wildtype; parent) VH: EVQLVQSGAEVKKPGESLKISCKGSGYSFTSYWIGWVRQMPGKGLEWMGIIYPGDSDTRYSPSFQGQVTISADKSISTAYLQWSSLKASDTAMYYCARRGYSYGYDYFDYWGQGTLVTVSS VL: QTVVTQEPSFSVSPGGTVTLTCGLSSGSVSTSYYPSWYQQTPGQAPRTLIYSTNTRSSGVPDRFSGSILGNKAALTITGAQADDESDYYCVLYMGSGISYVFGTGTKVTVL | 0.18 A450 | 0.16 A450 | 0.17 A450 | 0.17 A450
5 | Fab VH5-51_IGHD5-18*01>3_IGHJ4*01 G100K/G104T G24T/S28R/G35V & V3-4_IGLJ1*01 V91L/S96P S52F (Fab, V domains shown, Fab made in E. coli: VH on CH1 with His6 and Flag tags (Plasmid A), VL on lambda CL (Plasmid E); also called H: KT TRV & L: LP S52F) VH: EVQLVQSGAEVKKPGESLKISCKTSGYRFTSYWIVWVRQMPGKGLEWMGIIYPGDSDTRYSPSFQGQVTISADKSISTAYLQWSSLKASDTAMYYCARRKYSYTYDYFDYWGQGTLVTVSS VL: QTVVTQEPSFSVSPGGTVTLTCGLSSGSVSTSYYPSWYQQTPGQAPRTLIYFTNTRSSGVPDRFSGSILGNKAALTITGAQADDESDYYCLLYMGPGISYVFGTGTKVTVL | 0.49 A450 | 0.69 A450 | 0.99 A450 | 0.42 A450
6 | Fab VH5-51_IGHD5-18*01>3_IGHJ4*01 G100K/G104T G24T/S28R/G35V & V3-4_IGLJ1*01 V91L/S96P S52H (Fab, V domains shown, Fab made in E. coli: VH on CH1 with His6 and Flag tags (Plasmid A), VL on lambda CL (Plasmid E); also called H: KT TRV & L: LP S52H) VH: EVQLVQSGAEVKKPGESLKISCKTSGYRFTSYWIVWVRQMPGKGLEWMGIIYPGDSDTRYSPSFQGQVTISADKSISTAYLQWSSLKASDTAMYYCARRKYSYTYDYFDYWGQGTLVTVSS VL: QTVVTQEPSFSVSPGGTVTLTCGLSSGSVSTSYYPSWYQQTPGQAPRTLIYHTNTRSSGVPDRFSGSILGNKAALTITGAQADDESDYYCLLYMGPGISYVFGTGTKVTVL | 0.73 A450 | 0.91 A450 | 1.09 A450 | 0.5 A450
